# Test results as given in patent CN116410306A (ATTOGEN BIOMEDICAL SUZHOU INC LTD, dated 2023).
# B1: 抗HPV E6兔源单克隆抗体 A4F9 (antibody, V domains shown)
# VH: QEQLVESGGGLVQPEGSLTLTCTASGFSFSSSYWICWVRQAPGKGLEWIACIYSGDGDAYYASWAKGRFTISKTSSTTVTLQMTSLTAADTAAYFCARDRVYDSSSGHGLWGPGTLVTVSS
# VL: DIVMTQTPFSVSAAAGGTVTINCQASENIYSNLAWYQQKPGQRPKLLIYGTSDLPSGVPSRFSGSGYGTEFTLTISDLECADAATYYCQSYYYRSSSAYGWDFGGGTEVVVK
# notes: Rabbit monoclonal from single B cell cloning, tested as clone supernatant (rabbit IgG, detected with goat anti-rabbit-HRP); also called 克隆上清A4F9; A4F9克隆
# What was measured:
# [1] = target: T1, FLAG-HPV18 E6 (HPV18, UniProt P06463 1-158); assay: sandwich ELISA: flag antibody capture of 293T lysate (fresh or liquid-based fixed)
# T1 construct: Flag-E6 fusion protein from transfected 293T cell lysate, captured on a coated flag antibody; also called 可溶性蛋白HPV18 E6
# [2] = target: T2, Flag-HPV16 E6 (HPV16, UniProt P03126 1-158); assay: as above
# T2 chain: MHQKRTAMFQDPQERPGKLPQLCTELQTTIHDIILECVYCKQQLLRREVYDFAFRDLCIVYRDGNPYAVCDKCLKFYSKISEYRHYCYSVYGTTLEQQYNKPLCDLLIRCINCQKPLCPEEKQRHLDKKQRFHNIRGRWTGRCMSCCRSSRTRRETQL
# [3] = target: T3, HPV18 E6蛋白 (宫颈癌细胞株Hela细胞内源表达) (HPV18, UniProt P06463 1-158, limits assumed); assay: immunocytochemistry on fixed HeLa cells mixed with a negative clinical pool, DAB
# T3 construct: whole, on cells; Intracellular protein in fixed cells, stained by immunocytochemistry; HeLa cells were mixed into a pool of negative clinical samples
# [4] = target: T4, FLAG-HPV6 E6 (HPV6, UniProt P06462 1-150); assay: sandwich ELISA: flag antibody capture of 293T lysate, A4F9 supernatant 1:1
# T4 construct: Flag-E6 fusion protein from transfected 293T cell lysate, captured on a coated flag antibody
# T4 chain: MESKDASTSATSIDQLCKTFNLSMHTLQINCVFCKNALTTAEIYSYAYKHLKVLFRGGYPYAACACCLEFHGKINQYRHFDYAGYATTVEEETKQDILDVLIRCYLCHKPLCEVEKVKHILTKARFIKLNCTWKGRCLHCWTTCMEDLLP
# [5] = target: T5, FLAG-HPV11 E6 (HPV11, UniProt P04019 1-150); assay: as above
# T5 construct: Flag-E6 fusion protein from transfected 293T cell lysate, captured on a coated flag antibody
# T5 sequence: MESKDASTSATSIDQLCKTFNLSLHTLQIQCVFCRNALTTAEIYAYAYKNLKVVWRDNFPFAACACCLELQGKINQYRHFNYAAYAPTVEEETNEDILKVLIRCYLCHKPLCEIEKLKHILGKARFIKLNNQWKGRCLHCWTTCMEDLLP
# [6] = target: T4, FLAG-HPV6 E6; assay: sandwich ELISA: flag antibody capture of Flag-E6 from 293T lysate, A4F9 supernatant 1:1
# [7] = target: T5, FLAG-HPV11 E6; assay: as above
# [8] = target: T6, FLAG-HPV68 E6 (HPV68); assay: as above
# T6 construct: Flag-E6 fusion protein from transfected 293T cell lysate, captured on a coated flag antibody
# [9] = target: T7, HPV16 E6蛋白 (宫颈癌细胞株CaSki细胞内源表达) (HPV16, UniProt P03126 1-158); assay: immunocytochemistry on fixed CaSki cells, DAB
# T7 construct: whole, on cells; Intracellular protein in fixed cells (95% ethanol, EDTA heat retrieval), stained by immunocytochemistry; also called CaSki阳性标准对照细胞
# [10] = target: T4, FLAG-HPV6 E6; assay: sandwich ELISA; (HPV OD450 - 293T negative control)/HPV16 OD450, HPV16 E6 = 100%
# [11] = target: T5, FLAG-HPV11 E6; assay: as above
# [12] = target: T6, FLAG-HPV68 E6; assay: as above
# T3 sequence (P06463 whole entry): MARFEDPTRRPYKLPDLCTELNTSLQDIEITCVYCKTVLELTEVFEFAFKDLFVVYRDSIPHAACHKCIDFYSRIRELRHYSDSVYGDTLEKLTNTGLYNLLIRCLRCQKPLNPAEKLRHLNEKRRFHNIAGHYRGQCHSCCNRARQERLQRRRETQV
# T1 sequence (P06463 whole entry, the tested form may be a part): as the sequence (P06463 whole entry) above
binder,measurement,setting,value
B1,binding result,[1],binds
same,binding result,[2],binds
same,binding result,[3],binds
same,binding result,[4],no binding
same,binding result,[5],no binding
same,OD450,[6],0.1
same,OD450,[7],0.1
same,OD450,[8],0.5
same,binding result,[9],binds
same,%交叉活性,[10],-6.3%
same,%交叉活性,[11],-5.2%
same,%交叉活性,[12],6.3%
